Reference: US20240270860A1

Key:
[1] = molecular target: T1, S2…2RPG; assay: peptide-array ELISA (CYS.S)
T1 sequence (peptide, 2 = Cys(ACM)): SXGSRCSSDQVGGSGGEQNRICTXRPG

[2] = molecular target: T2, …2…2RPGW; assay: peptide-array ELISA (CYS.S)
T2 sequence (peptide, 2 = Cys(ACM)): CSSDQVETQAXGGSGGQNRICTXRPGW

[3] = molecular target: T3, VPE2LS2…2RP; assay: peptide-array ELISA (CYS.S)
T3 sequence (peptide, 2 = Cys(ACM)): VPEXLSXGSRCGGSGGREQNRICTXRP

[4] = molecular target: T4, …2R; assay: peptide-array ELISA (CYS.S)
T4 sequence (peptide, 2 = Cys(ACM)): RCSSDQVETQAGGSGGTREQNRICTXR

[5] = molecular target: T5, LS2…2RP; assay: peptide-array ELISA (CYS.S)
T5 sequence (peptide, 2 = Cys(ACM)): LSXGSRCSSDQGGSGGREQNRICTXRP

[6] = molecular target: T6, S2…2RPGW; assay: peptide-array ELISA (CYS.S)
T6 sequence (peptide, 2 = Cys(ACM)): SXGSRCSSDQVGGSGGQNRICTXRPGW

[7] = molecular target: T7, 2…2RPGW; assay: peptide-array ELISA (CYS.S)
T7 sequence (peptide, 2 = Cys(ACM)): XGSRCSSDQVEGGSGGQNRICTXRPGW

[8] = molecular target: T8, PE2LS2…2RP; assay: peptide-array ELISA (CYS.S)
T8 sequence (peptide, 2 = Cys(ACM)): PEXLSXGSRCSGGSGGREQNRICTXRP

[9] = molecular target: T9, 2LS2…2RP; assay: peptide-array ELISA (CYS.S)
T9 sequence (peptide, 2 = Cys(ACM)): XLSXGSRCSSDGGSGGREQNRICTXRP

[10] = molecular target: T10, …2RPGW; assay: peptide-array ELISA (CYS.S)
T10 sequence (peptide, 2 = Cys(ACM)): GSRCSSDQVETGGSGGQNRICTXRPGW

[11] = molecular target: T11, LS2…2RPGW; assay: peptide-array ELISA (CYS.S)
T11 sequence (peptide, 2 = Cys(ACM)): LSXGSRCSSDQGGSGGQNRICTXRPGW

[12] = molecular target: T12, …2RPGW; assay: peptide-array ELISA (CYS.S); remark: listed apart in the source
T12 sequence (peptide, 2 = Cys(ACM)): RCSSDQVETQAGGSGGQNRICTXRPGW

[13] = molecular target: T13, …2…2R; assay: peptide-array ELISA (CYS.S)
T13 sequence (peptide, 2 = Cys(ACM)): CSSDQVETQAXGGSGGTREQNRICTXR

[14] = molecular target: T14, E2LS2…2RPG; assay: peptide-array ELISA (CYS.S)
T14 sequence (peptide, 2 = Cys(ACM)): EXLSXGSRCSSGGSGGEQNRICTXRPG

[15] = molecular target: T15, S2…2RP; assay: peptide-array ELISA (CYS.S)
T15 sequence (peptide, 2 = Cys(ACM)): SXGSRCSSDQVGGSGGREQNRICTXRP

[16] = molecular target: T16, PE2LS2…2RPGW; assay: peptide-array ELISA (CYS.S)
T16 sequence (peptide, 2 = Cys(ACM)): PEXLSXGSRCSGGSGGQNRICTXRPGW

[17] = molecular target: T17, …2RPG; assay: peptide-array ELISA (CYS.S)
T17 sequence (peptide, 2 = Cys(ACM)): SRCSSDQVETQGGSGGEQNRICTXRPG

[18] = molecular target: T18, …2RPG; assay: peptide-array ELISA (CYS.S); remark: listed apart in the source
T18 sequence (peptide, 2 = Cys(ACM)): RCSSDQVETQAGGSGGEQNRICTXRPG

[19] = molecular target: T19, …2RP; assay: peptide-array ELISA (CYS.S)
T19 sequence (peptide, 2 = Cys(ACM)): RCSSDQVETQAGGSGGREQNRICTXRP

[20] = molecular target: T20, PE2LS2…2RPG; assay: peptide-array ELISA (CYS.S)
T20 sequence (peptide, 2 = Cys(ACM)): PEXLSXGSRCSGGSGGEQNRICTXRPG

[21] = molecular target: T21, LS2…2RPG; assay: peptide-array ELISA (CYS.S)
T21 sequence (peptide, 2 = Cys(ACM)): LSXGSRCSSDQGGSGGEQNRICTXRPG

[22] = molecular target: T22, 2LS2…2RPG; assay: peptide-array ELISA (CYS.S)
T22 sequence (peptide, 2 = Cys(ACM)): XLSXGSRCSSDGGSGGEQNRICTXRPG

[23] = molecular target: T23, …2R; assay: peptide-array ELISA (CYS.S); remark: listed apart in the source
T23 sequence (peptide, 2 = Cys(ACM)): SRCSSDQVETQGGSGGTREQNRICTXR

[24] = molecular target: T24, E2LS2…2RP; assay: peptide-array ELISA (CYS.S)
T24 sequence (peptide, 2 = Cys(ACM)): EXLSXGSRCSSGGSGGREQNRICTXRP

[25] = molecular target: T25, 2LS2…2RPGW; assay: peptide-array ELISA (CYS.S)
T25 sequence (peptide, 2 = Cys(ACM)): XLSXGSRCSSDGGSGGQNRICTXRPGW

[26] = molecular target: T26, E2LS2…2RPGW; assay: peptide-array ELISA (CYS.S)
T26 sequence (peptide, 2 = Cys(ACM)): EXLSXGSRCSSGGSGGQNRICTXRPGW

[27] = molecular target: T27, 2…2RPG; assay: peptide-array ELISA (CYS.S)
T27 sequence (peptide, 2 = Cys(ACM)): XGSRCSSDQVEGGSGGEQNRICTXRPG

[28] = molecular target: T28, …2RPG; assay: peptide-array ELISA (CYS.S); remark: listed apart in the source
T28 sequence (peptide, 2 = Cys(ACM)): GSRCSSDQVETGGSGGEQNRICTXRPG

[29] = molecular target: T29, VPE2LS2…2RPGW; assay: peptide-array ELISA (CYS.S)
T29 sequence (peptide, 2 = Cys(ACM)): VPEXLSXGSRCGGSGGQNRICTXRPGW

[30] = molecular target: T30, …2RP; assay: peptide-array ELISA (CYS.S); remark: listed apart in the source
T30 sequence (peptide, 2 = Cys(ACM)): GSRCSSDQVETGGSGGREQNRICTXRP

[31] = molecular target: T31, 2…2RP; assay: peptide-array ELISA (CYS.S)
T31 sequence (peptide, 2 = Cys(ACM)): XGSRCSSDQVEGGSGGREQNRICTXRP

[32] = molecular target: T32, …2…2RPG; assay: peptide-array ELISA (CYS.S)
T32 sequence (peptide, 2 = Cys(ACM)): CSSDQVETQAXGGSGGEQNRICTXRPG

[33] = molecular target: T33, …2…2RP; assay: peptide-array ELISA (CYS.S)
T33 sequence (peptide, 2 = Cys(ACM)): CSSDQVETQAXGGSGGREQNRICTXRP

[34] = molecular target: T34, …2RPGW; assay: peptide-array ELISA (CYS.S); remark: listed apart in the source
T34 sequence (peptide, 2 = Cys(ACM)): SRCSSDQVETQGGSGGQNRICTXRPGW

[35] = molecular target: T35, …2RP; assay: peptide-array ELISA (CYS.S); remark: listed apart in the source
T35 sequence (peptide, 2 = Cys(ACM)): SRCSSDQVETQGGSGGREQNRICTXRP

[36] = molecular target: T36, VPE2LS2…2RPG; assay: peptide-array ELISA (CYS.S)
T36 sequence (peptide, 2 = Cys(ACM)): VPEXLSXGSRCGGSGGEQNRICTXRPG

[37] = molecular target: T37, EGCRL2…; assay: peptide-array ELISA (CYS.S) [Continued]
T37 sequence (peptide, 2 = Cys(ACM)): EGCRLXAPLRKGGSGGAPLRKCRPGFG

[38] = molecular target: T38, LS2…2RPGWY2AL; assay: peptide-array ELISA (CYS.S) [Continued]
T38 sequence (peptide, 2 = Cys(ACM)): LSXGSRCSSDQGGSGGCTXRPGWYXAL

[39] = molecular target: T39, WY2…; assay: peptide-array ELISA (CYS.S) [Continued]
T39 sequence (peptide, 2 = Cys(ACM)): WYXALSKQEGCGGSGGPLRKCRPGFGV

[40] = molecular target: T40, …2RPGWY; assay: peptide-array ELISA (CYS.S) [Continued]
T40 sequence (peptide, 2 = Cys(ACM)): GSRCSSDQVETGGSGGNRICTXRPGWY

[41] = molecular target: T41, …2RPGWY2AL; assay: peptide-array ELISA (CYS.S) [Continued]
T41 sequence (peptide, 2 = Cys(ACM)): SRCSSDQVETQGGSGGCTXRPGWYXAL

Raw luminescence data [1]: 235 | Raw luminescence data [2]: 493 | Raw luminescence data [3]: 318 | Raw luminescence data [4]: 125 | Raw luminescence data [5]: 261 | Raw luminescence data [6]: 364 | Raw luminescence data [7]: 493 | Raw luminescence data [8]: 291 | Raw luminescence data [9]: 262 | Raw luminescence data [10]: 466 | Raw luminescence data [11]: 291 | Raw luminescence data [12]: 507 | Raw luminescence data [13]: 179 | Raw luminescence data [14]: 152 | Raw luminescence data [15]: 247 | Raw luminescence data [16]: 543 | Raw luminescence data [17]: 222 | Raw luminescence data [18]: 183 | Raw luminescence data [19]: 130 | Raw luminescence data [20]: 229 | Raw luminescence data [21]: 244 | Raw luminescence data [22]: 214 | Raw luminescence data [23]: 177 | Raw luminescence data [24]: 323 | Raw luminescence data [25]: 345 | Raw luminescence data [26]: 482 | Raw luminescence data [27]: 221 | Raw luminescence data [28]: 202 | Raw luminescence data [29]: 577 | Raw luminescence data [30]: 166 | Raw luminescence data [31]: 228 | Raw luminescence data [32]: 248 | Raw luminescence data [33]: 250 | Raw luminescence data [34]: 402 | Raw luminescence data [35]: 157 | Raw luminescence data [36]: 225 | Raw luminescence data [37]: 312 | Raw luminescence data [38]: 510 | Raw luminescence data [39]: 341 | Raw luminescence data [40]: 587 | Raw luminescence data [41]: 391
B1: antagonistic TNFR2 antibody TNFRAB1 (antibody, V domains shown)
VH: EVQLQESGGGLVKPGGSLKLSCAASGFTFSSYVMSWVRQTPEKRLEWVATISSGGSYTYYPDSVKGRFTISRDNAKNTLYLQMSSLRSEDTAMYYCARQRVDGYSSYWYFDVWGAGTAVTVSS
VL: DIVLTQSPAIMSASPGEKVTITCSASSSVYYMYWFQQKPGTSPKLWIYSTSNLASGVPVRFSGSGSGTSYSLTISRMEAEDAATYYCQQRRNYPYTFGGGTKLEIKR
